The test addresses Hen eggwhite lysozyme (HEWL), control (no iodoacetamide), in 50 mM phosphate buffer at pH 12.2 (hen) (UniProt P00698). In words: single-molecule force spectroscopy (AFM pulling); HEWL aggregates formed after 4 days of incubation at pH 12.2, 120 uM in 50 mM phosphate buffer, on a gold coated coverslip; pulling speed 400 nm/s.

“Hen eggwhite lysozyme (HEWL), control (no iodoacetamide), in 50 mM phosphate buffer at pH 12.2 (from UniProt P00698 19-147) (enzyme)” showed an average detachment force of 1000 pN and a mechanical stability (detachment peak force) of 300 to 2600 pN.

These data come from article PMC3925087.
